Results on 41 substances are retold here after PMC12700808.

Assay [1] has as its target Nup98-type FG domain comprising 52 perfect 12-mer GLFG repeat units (prf.GLFG52x12). The assay can be described thus: FG phase partitioning assay.
In assay [2] the target is FG repeat domain of 669 residues with non-charged spacers and 36 FSFG motifs. The assay can be described thus: FG phase partitioning assay.
Assay [3] deals with Nup98-type FG domain comprising 52 perfect 12-mer GLFG repeat units (prf.GLFG52x12). Description: partitioning into an FG phase (confocal laser scanning microscopy); prf.GLFG52x12 domain phase-separated into FG particles; fluorescent species added, scanned 1 h later; 50 mM Tris-HCl pH 7.5, 150 or 250 mM NaCl, 0.5 mM IP6; signal in:out, or rim and centre normalised to wild type.

For assay [4] the target is unchanged. The assay can be described thus: FG phase partitioning assay. The source holds these as a separate data set.
The target is the same in assay [5]. The assay can be described thus: FG phase partitioning assay. This is another data set of the same source.
Setting [6] is: fluorescence intensity at rim of FG particles.
Where [7] appears, read: fluorescence intensity in center of FG particles.
[8] abbreviates: signal in center of FG particles.

For “20-nm T1 pentamer-only capsid spheres (CA P1A+G60A+G61P), EGFP-labelled A92E”, the response in assay [1] (setting [6]) was 11000; in assay [1] (setting [7]), 5300. Also, the percent of parent in assay [1] (signal at rim of FG particles) was found to be 58%; in assay [1] (setting [8]), 28%.

For the substance “20-nm T1 pentamer-only capsid spheres (CA P1A+G60A+G61P), EGFP-labelled G89V”, the figures for the response in assay [2] (setting [6]) and in assay [2] (setting [7]) were 31000 and 34000, respectively. Besides, the percent of parent was determined as 160% in assay [2] (signal at rim of FG particles) and 170% in assay [2] (setting [8]).

On to “20-nm T1 pentamer-only capsid spheres (CA P1A+G60A+G61P), EGFP-labelled G94D”, for which the response in assay [1] (setting [6]) stood at 15000; in assay [1] (setting [7]), 9600. The percent of parent in assay [1] (signal at rim of FG particles) came to 79%.

Regarding “20-nm T1 pentamer-only capsid spheres (CA P1A+G60A+G61P), EGFP-labelled H87Q”, the response in assay [1] (setting [6]) was determined as 15000; in assay [1] (setting [7]) it was 13000. The results for the percent of parent in assay [1] (signal at rim of FG particles) and in assay [1] (setting [8]) were 79% and 68%, respectively.

Consider “20-nm T1 pentamer-only capsid spheres (CA P1A+G60A+G61P), EGFP-labelled H87Q; A92E; G94D”, for which the response in assay [1] (setting [6]) amounted to 2300; in assay [1] (setting [7]), 190. Further, the values for the percent of parent in assay [1] (signal at rim of FG particles) and in assay [1] (setting [8]) were 12% and 1%, respectively.

Consider “20-nm T1 pentamer-only capsid spheres (CA P1A+G60A+G61P), EGFP-labelled N57A”, for which the response in assay [1] (setting [6]) was determined as 8500; in assay [1] (setting [7]), 400. Moreover, the percent of parent in assay [1] (signal at rim of FG particles) amounted to 45%; in assay [1] (setting [8]), 2.1%.

Consider “20-nm T1 pentamer-only capsid spheres (CA P1A+G60A+G61P), EGFP-labelled Q9E”, for which the response in assay [1] (setting [6]) worked out at 15000; in assay [1] (setting [7]), 14000. Further, the percent of parent was determined as 79% in assay [1] (signal at rim of FG particles) and 74% in assay [1] (setting [8]).

On to “20-nm T1 pentamer-only capsid spheres (CA P1A+G60A+G61P), EGFP-labelled Q9E; A92E”, for which the figures for the response in assay [1] (setting [6]) and in assay [1] (setting [7]) were 5800 and 290, respectively. Also, the percent of parent was determined as 31% in assay [1] (signal at rim of FG particles) and 1.5% in assay [1] (setting [8]).

In the case of “20-nm T1 pentamer-only capsid spheres (CA P1A+G60A+G61P), EGFP-labelled V86E; A88E; I91E; A92E”, in assay [1] (setting [6]), the response worked out at 74. The percent of parent in assay [1] (signal at rim of FG particles) and in assay [1] (setting [8]) was 0.4% each time.

Regarding “CLPs of CA A88E, filled with sinGFP4a (complex)”, in assay [3], the fold reduction of partitioning against wild type is > 10 fold.

Consider “CLPs of CA A92E, filled with sinGFP4a (complex)”, for which, in assay [3], the fold reduction of partitioning against wild type is > 10 fold and the partitioning, percent of the wild-type level (% of the wild-type level) amounted to 5.

On to “CLPs of CA G94D, filled with sinGFP4a (complex)”, for which, in assay [3], the partitioning, percent of the wild-type level (% of the wild-type level) is 5.

On to “CLPs of CA H87E, filled with sinGFP4a (complex)”, for which the fold reduction of partitioning against wild type in assay [3] was determined as 15 fold.

Consider “CLPs of CA H87Q, filled with sinGFP4a (complex)”, for which the reduction in partitioning against wild type in assay [3] came to 50%.

“CLPs of CA I91E, filled with sinGFP4a (complex)”: in assay [3], the fold reduction of partitioning against wild type was > 10 fold.

Regarding “CLPs of CA M96E, filled with sinGFP4a (complex)”, the fold reduction of partitioning against wild type in assay [3] is > 10 fold.

In assay [3], “CLPs of CA R132K, filled with sinGFP4a (complex)” came in with a reduction in partitioning against wild type of 50%.

As for “CLPs of CA V86E, filled with sinGFP4a (complex)”, the fold reduction of partitioning against wild type in assay [3] is > 10 fold.

On to EGFP, for which, in assay [3], the partition coefficient (in:out) is < 0.1.

“conical CLPs (capsid-like particles) of wild-type CA (CA-P1A), EGFP-labelled (complex)”: in assay [3], the partition coefficient (in:out) worked out at 1000.

“conical CLPs (capsid-like particles) of wild-type CA (CA-P1A), filled with sinGFP4a A77V”: the percent of parent in assay [4] (setting [8]) came out at 94%. The figures for the response in assay [5] (setting [6]) and in assay [5] (setting [7]) were 27000 and 29000, respectively.

Consider “conical CLPs (capsid-like particles) of wild-type CA (CA-P1A), filled with sinGFP4a A88G”, for which the results for the response in assay [1] (setting [6]) and in assay [1] (setting [7]) were 26000 and 30000, respectively. The percent of parent in assay [1] (signal at rim of FG particles) and in assay [1] (setting [8]) was 90% each time.

For the substance “conical CLPs (capsid-like particles) of wild-type CA (CA-P1A), filled with sinGFP4a A92G”, the results for the response in assay [1] (setting [6]) and in assay [1] (setting [7]) were 26000 and 32000, respectively. Further, the percent of parent in assay [1] (signal at rim of FG particles) and in assay [1] (setting [8]) was 90% in each case.

For “conical CLPs (capsid-like particles) of wild-type CA (CA-P1A), filled with sinGFP4a E45A”, the percent of parent in assay [4] (signal at rim of FG particles) and in assay [4] (setting [8]) was 110% each time. Besides, the response in assay [5] (setting [6]) came out at 29000; in assay [5] (setting [7]), 34000.

Consider “conical CLPs (capsid-like particles) of wild-type CA (CA-P1A), filled with sinGFP4a G89V”, for which the percent of parent in assay [4] (setting [8]) amounted to 110%. Further, the results for the response in assay [5] (setting [6]) and in assay [5] (setting [7]) were 29000 and 30000, respectively.

For the substance “conical CLPs (capsid-like particles) of wild-type CA (CA-P1A), filled with sinGFP4a G116A”, the response in assay [5] (setting [6]) stood at 27000; in assay [5] (setting [7]) it was 32000.

With “conical CLPs (capsid-like particles) of wild-type CA (CA-P1A), filled with sinGFP4a H87G”, the response in assay [1] (setting [6]) and in assay [1] (setting [7]) was 30000 in each case. In addition, the percent of parent in assay [1] (setting [8]) worked out at 90%.

For “conical CLPs (capsid-like particles) of wild-type CA (CA-P1A), filled with sinGFP4a I91G”, the response in assay [1] (setting [6]) stood at 30000; in assay [1] (setting [7]) it was 33000.

On to “conical CLPs (capsid-like particles) of wild-type CA (CA-P1A), filled with sinGFP4a K182R”, for which, in assay [4] (setting [8]), the percent of parent was 110%. In addition, the response in assay [5] (setting [6]) is 28000; in assay [5] (setting [7]) it was 34000.

“conical CLPs (capsid-like particles) of wild-type CA (CA-P1A), filled with sinGFP4a L136M”: the response in assay [5] (setting [6]) came to 28000; in assay [5] (setting [7]), 30000.

On to “conical CLPs (capsid-like particles) of wild-type CA (CA-P1A), filled with sinGFP4a M96G”, for which the response worked out at 28000 in assay [1] (setting [6]) and 30000 in assay [1] (setting [7]). For the same substance, the percent of parent in assay [1] (setting [8]) is 90%.

For “conical CLPs (capsid-like particles) of wild-type CA (CA-P1A), filled with sinGFP4a N57A”, the percent of parent was 80% in assay [4] (signal at rim of FG particles), 85% in assay [1] (signal at rim of FG particles) and 7% in assay [1] (setting [8]). Further, the response was 23000 in assay [1] (setting [6]), 1800 in assay [1] (setting [7]), 21000 in assay [5] (setting [6]) and 1600 in assay [5] (setting [7]).

For “conical CLPs (capsid-like particles) of wild-type CA (CA-P1A), filled with sinGFP4a N57A; A92E”, the response came to 14000 in assay [1] (setting [6]) and 1100 in assay [1] (setting [7]). Moreover, the percent of parent in assay [1] (signal at rim of FG particles) amounted to 52%; in assay [1] (setting [8]), 4.2%.

For “conical CLPs (capsid-like particles) of wild-type CA (CA-P1A), filled with sinGFP4a N57A; A92E; G94D”, the response in assay [1] (setting [6]) worked out at 4300; in assay [1] (setting [7]) it was 660. For the same substance, the percent of parent in assay [1] (signal at rim of FG particles) was found to be 16%; in assay [1] (setting [8]), 2.5%.

“conical CLPs (capsid-like particles) of wild-type CA (CA-P1A), filled with sinGFP4a N57A; G94D”: the values for the response in assay [1] (setting [6]) and in assay [1] (setting [7]) were 17000 and 1200, respectively. For the same substance, the percent of parent in assay [1] (signal at rim of FG particles) amounted to 63%; in assay [1] (setting [8]) it was 4.6%.

Consider “conical CLPs (capsid-like particles) of wild-type CA (CA-P1A), filled with sinGFP4a N57A; H87Q; A92E; G94D”, for which the response in assay [1] (setting [6]) amounted to 370; in assay [1] (setting [7]), 440. For the same substance, the percent of parent in assay [1] (signal at rim of FG particles) was found to be 1.4%; in assay [1] (setting [8]) it was 1.7%.

In the case of “conical CLPs (capsid-like particles) of wild-type CA (CA-P1A), filled with sinGFP4a N74D”, the percent of parent in assay [4] (signal at rim of FG particles) and in assay [4] (setting [8]) was 110% in each case. Further, the response was 30000 in assay [5] (setting [6]) and 33000 in assay [5] (setting [7]).

“conical CLPs (capsid-like particles) of wild-type CA (CA-P1A), filled with sinGFP4a P90A”: the percent of parent in assay [4] (signal at rim of FG particles) was found to be 110%. The response in assay [5] (setting [6]) was 29000; in assay [5] (setting [7]) it was 32000.

Regarding “conical CLPs (capsid-like particles) of wild-type CA (CA-P1A), filled with sinGFP4a R143A”, the response is 28000 in assay [5] (setting [6]) and 30000 in assay [5] (setting [7]).

On to “conical CLPs (capsid-like particles) of wild-type CA (CA-P1A), filled with sinGFP4a V86G”, for which the response came out at 27000 in assay [1] (setting [6]) and 31000 in assay [1] (setting [7]). Besides, the percent of parent in assay [1] (signal at rim of FG particles) and in assay [1] (setting [8]) was 90% in each case.

As for mCherry, in assay [3], the partition coefficient (in:out) was < 0.1.
